These results are taken from KR20130126534A.

The target of the assay is TNF-α. The experiment in a line: ELISA, TNF-α coated 100 ng/well, protein titrated from 100 nM, anti-Human Fc-HRP.

Substance “TNFR2 (단독) (from UniProt P20333 23-252) (Fc fusion)” registered a Kd of 0.068 nM.
